In publication PMC7261166:

T1: SA1 (STAG1) (UniProt Q8WVM7 1-1258)
T1 sequence: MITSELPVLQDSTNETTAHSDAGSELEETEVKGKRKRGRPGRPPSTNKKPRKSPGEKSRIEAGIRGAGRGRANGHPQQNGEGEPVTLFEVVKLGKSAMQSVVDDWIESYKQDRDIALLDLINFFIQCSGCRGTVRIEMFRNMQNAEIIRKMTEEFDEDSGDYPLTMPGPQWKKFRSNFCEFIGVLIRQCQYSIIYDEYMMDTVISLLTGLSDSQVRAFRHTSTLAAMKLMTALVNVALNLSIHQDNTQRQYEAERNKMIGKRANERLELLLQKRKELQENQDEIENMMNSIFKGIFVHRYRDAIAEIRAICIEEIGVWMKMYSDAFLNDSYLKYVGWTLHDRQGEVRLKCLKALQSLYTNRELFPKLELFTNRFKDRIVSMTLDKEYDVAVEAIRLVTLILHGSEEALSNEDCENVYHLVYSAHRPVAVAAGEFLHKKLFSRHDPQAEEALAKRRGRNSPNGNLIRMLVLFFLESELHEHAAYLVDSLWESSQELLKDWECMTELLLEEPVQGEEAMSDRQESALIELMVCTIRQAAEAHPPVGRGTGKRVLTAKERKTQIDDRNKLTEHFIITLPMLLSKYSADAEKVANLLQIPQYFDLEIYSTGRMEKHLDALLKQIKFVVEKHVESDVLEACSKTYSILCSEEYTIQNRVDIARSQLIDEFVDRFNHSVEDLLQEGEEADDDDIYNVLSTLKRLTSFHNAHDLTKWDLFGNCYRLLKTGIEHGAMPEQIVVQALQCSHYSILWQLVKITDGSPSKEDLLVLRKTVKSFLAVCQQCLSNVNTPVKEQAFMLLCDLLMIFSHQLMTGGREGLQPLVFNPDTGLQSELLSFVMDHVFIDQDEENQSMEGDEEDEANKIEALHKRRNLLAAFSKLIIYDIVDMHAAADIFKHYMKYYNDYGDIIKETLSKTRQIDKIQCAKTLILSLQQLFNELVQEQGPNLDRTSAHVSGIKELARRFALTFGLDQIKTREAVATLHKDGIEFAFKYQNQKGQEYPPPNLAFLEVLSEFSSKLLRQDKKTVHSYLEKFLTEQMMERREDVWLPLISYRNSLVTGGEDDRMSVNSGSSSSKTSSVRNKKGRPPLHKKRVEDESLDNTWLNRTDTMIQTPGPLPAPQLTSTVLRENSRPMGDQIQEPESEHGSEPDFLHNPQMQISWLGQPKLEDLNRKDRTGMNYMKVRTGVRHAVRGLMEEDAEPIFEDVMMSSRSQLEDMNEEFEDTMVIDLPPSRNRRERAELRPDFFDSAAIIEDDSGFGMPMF

T2: SA2 (STAG2) (UniProt Q8N3U4 1-1231)
T2 sequence: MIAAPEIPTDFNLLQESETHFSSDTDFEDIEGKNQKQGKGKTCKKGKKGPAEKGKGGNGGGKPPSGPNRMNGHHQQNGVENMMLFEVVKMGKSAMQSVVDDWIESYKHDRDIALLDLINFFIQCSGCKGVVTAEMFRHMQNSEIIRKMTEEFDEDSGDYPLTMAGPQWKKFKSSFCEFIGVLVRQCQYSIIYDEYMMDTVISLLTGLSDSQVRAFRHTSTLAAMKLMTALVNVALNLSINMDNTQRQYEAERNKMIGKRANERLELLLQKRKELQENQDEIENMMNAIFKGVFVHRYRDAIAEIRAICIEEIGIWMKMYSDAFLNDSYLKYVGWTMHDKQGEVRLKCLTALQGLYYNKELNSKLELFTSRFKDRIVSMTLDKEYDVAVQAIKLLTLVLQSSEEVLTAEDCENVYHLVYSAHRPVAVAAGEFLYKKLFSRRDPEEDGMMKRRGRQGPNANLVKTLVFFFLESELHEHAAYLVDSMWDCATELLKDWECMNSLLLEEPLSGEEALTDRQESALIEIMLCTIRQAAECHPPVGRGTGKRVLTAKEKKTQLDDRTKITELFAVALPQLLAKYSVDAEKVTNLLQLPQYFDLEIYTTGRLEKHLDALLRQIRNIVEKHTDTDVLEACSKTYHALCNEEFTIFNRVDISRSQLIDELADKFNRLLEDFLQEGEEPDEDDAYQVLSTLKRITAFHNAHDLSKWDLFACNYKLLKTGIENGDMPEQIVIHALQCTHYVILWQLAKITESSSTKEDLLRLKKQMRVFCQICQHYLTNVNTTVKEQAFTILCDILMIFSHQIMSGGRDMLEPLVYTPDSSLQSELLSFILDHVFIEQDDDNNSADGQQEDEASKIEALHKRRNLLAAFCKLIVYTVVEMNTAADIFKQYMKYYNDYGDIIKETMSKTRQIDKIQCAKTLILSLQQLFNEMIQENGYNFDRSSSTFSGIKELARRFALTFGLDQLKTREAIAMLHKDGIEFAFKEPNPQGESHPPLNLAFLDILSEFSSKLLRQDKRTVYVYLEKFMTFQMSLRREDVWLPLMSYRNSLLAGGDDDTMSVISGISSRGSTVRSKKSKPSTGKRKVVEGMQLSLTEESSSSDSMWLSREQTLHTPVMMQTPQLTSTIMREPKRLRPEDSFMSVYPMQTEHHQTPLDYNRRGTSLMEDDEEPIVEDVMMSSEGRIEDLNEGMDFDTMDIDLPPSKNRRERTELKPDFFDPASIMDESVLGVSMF

B1: 66 nt RNA-1 (ssRNA)
RNA: CUGGAUCCGUACAGUGUAAGGGUGAGUGGUUGGGUGUGUGGGUGUUGAUGUAGAACAAGAAUUCGA
B2: RNA:DNA hybrid (45 bp) (DNA:RNA)
RNA: CUGGAUCCGUACAGUGUAAGGGUGAGUGGUUGGGUGUGUGGGUGU
DNA: ACACCCACACACCCAACCACTCACCCTTACACTGTACGGATCCAG
B3: Model R-loop (mixed)
RNA: GCAGCUGGCACGACAGGUAUGAAUC
DNA 1: GCCAGGGACGAGGTGAACCTGCAGGTGGGCGGCTACTACTTAGATGTCATCCGAGGCTTATTGGTAGAATTCGGCAGCGTCATGCGACGGC
DNA 2: GCCGTCGCATGACGCTGCCGAATTCTACCACGCGATTCATACCTGTCGTGCCAGCTGCTTTGCCCACCTGCAGGTTCACCTCGTCCCTGGC
B4: RNA:DNA hybrid (25 bp) (DNA:RNA)
RNA: GCAGCUGGCACGACAGGUAUGAAUC
DNA: GATTCATACCTGTCGTGCCAGCTGC
B5: 66 nt RNA-2 (ssRNA)
RNA: UCGAAUUCUUGUUCUACAUCAACACCCACACACCCAACCACUCACCCUUACACUGUACGGAUCCAG

Each binder was assayed against EWSR1 (UniProt Q01844 1-656) (assay: fluorescence anisotropy).
Chain of EWSR1 (Q01844 whole entry): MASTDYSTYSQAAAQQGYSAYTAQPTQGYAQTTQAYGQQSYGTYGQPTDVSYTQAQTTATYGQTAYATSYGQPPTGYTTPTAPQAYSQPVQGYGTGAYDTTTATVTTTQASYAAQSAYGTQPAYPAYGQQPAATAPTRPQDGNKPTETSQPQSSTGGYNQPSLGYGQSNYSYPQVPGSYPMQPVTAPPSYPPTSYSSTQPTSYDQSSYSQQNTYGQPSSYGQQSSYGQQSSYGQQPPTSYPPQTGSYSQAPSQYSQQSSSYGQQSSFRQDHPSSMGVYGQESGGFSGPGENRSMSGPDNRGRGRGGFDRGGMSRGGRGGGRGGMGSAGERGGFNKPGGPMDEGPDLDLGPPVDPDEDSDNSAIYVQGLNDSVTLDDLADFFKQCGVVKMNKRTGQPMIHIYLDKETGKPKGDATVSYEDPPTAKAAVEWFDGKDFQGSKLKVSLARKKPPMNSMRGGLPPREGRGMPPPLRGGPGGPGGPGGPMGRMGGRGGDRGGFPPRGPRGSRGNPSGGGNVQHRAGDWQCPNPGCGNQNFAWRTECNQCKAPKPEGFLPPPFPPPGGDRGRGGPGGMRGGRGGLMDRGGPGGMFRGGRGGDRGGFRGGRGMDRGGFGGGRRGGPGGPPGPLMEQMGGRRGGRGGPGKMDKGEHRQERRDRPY

Row | Binder | Kd [nM]
1 | B1 | 35.1 ± 1.8
2 | B2 | 27.7 ± 4.1
3 | GCAGCUGGCACGACAGGUAUGAAUC (ssRNA) [25 nt RNA (R-loop oligo)] | 134.2 ± 0.04
4 | B3 | 28.6 ± 0.8

The binders below were run against T1, SA1 (STAG1) (assay: fluorescence anisotropy).

Row | Binder | Kd [nM]
5 | B1 | 3.2 ± 0.3
6 | B2 | 44 ± 5.9
7 | CUGGAUCCGUACAGUGUAAGGGUGAGUGGUUGGGUGUGUGGGUGU (ssRNA) [45 nt RNA] | 6 ± 0.6
8 | B4 | 58.6 ± 1.5
9 | B5 | 3 ± 0.1
10 | GCAGCUGGCACGACAGGUAUGAAUC (ssRNA) [25 nt RNA (R-loop oligo)] | 164 ± 37.4
11 | B3 | 38.4 ± 8.7

These binders were tested against T2, SA2 (STAG2) (assay: fluorescence anisotropy).

Row | Binder | Kd [nM]
12 | B1 | 7.2 ± 2.5
13 | B2 | 31.7 ± 1.5
14 | CUGGAUCCGUACAGUGUAAGGGUGAGUGGUUGGGUGUGUGGGUGU (ssRNA) [45 nt RNA] | 11.4 ± 1.2
15 | B4 | 43.3 ± 5.6
16 | B5 | 5.1 ± 0.6
17 | GCAGCUGGCACGACAGGUAUGAAUC (ssRNA) [25 nt RNA (R-loop oligo)] | 251 ± 3.2
18 | B3 | 36 ± 4
